Laboratory results as given in PMC9034974, “Physicochemical characterization of the recombinant lectin scytovirin and microbicidal activity of the SD1 domain produced in rice against HIV-1” (Plant Cell Reports, 2022).
Where two headings read alike, the source gives them in different places.

How the values were obtained:
[1] = biological target: recombinant gp120 used for isothermal titration calorimetry (strain not stated) (HIV-1 (strain not stated)) (UniProt P04578); test: ITC; 102 µM SVN titrated into the cell with 1.6 µM gp120; 30 °C; 10 mM sodium phosphate pH 7.4, 3 mM sodium azide; fitted to one set of identical sites
[2] = biological target: recombinant gp120 used for isothermal titration calorimetry (strain not stated) (HIV-1 (strain not stated)) (UniProt P04578); test: as above; remark: listed apart in the source

Chain of scytovirin (SVN), full-size, E. coli-produced (P86041 whole entry): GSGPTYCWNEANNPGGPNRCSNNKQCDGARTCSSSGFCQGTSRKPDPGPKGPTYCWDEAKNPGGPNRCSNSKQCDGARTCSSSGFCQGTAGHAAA

## scytovirin (SVN), full-size, E. coli-produced (from UniProt P86041 1-95) (natural protein)
[1]
  Kd: 1500 nM
[2]
  Kd: 1630 nM
  dH: -6.45 kcal/mol
  stoichiometry N (SVN per gp120): 5
